Measured values as given in paper PMC7371702.

Legend:
[1] = molecular target: YFP-tagged α7 nicotinic acetylcholine receptor (human CHRNA7 with YFP fused into the M3-M4 loop) (human) (UniProt P36544)
[2] = molecular target: YFP-tagged α7 nicotinic acetylcholine receptor (human CHRNA7 with YFP fused into the M3-M4 loop) (human) (UniProt P36544); remark: listed apart in the source

Chain of UniProt P36544 (P36544 23-502): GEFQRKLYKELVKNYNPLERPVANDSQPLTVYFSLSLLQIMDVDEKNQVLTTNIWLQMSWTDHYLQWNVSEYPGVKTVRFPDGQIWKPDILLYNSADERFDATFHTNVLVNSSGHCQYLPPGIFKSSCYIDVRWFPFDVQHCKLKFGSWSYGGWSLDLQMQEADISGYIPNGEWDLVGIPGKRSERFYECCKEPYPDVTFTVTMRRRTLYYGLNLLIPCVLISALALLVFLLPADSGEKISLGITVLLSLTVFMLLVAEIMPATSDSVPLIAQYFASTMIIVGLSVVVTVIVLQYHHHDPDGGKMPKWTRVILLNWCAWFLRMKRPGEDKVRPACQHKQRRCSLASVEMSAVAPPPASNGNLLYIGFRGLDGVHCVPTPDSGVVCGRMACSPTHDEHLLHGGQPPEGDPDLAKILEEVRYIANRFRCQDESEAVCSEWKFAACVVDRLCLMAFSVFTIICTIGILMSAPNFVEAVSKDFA

B1: Soluble streptavidin-binding peptide (SBP)-tagged mouse Ly6H (natural protein)
chain: LWCQDCTLANSSHCAPKQCQPTDTVCASVRITDPSSSRKDHSVNKMCASSCDFVKRHFFSDYLMGFINSGILKVDVDCCEKDLCN
- inhibitory ratio: post-stimulation peak amplitude divided by pre-stimulation peak amplitude of choline (30 μM) + PNU120596 (1 μM)-evoked current in TARO cells, 2.5 μM soluble protein applied for 3 min [1]: 82.7%
- inhibition of ligand-evoked α7 nAChR current in TARO cells by exogenously added soluble Ly6H-SBP (2.5 μM) [2]: 14%

B2: Soluble SBP-tagged mouse Ly6H R38A mutant (natural protein)
chain: LWCQDCTLANSSHCAPKQCQPTDTVCASVRITDPSSSAKDHSVNKMCASSCDFVKRHFFSDYLMGFINSGILKVDVDCCEKDLCN
- inhibitory ratio: post-stimulation peak amplitude divided by pre-stimulation peak amplitude of choline (30 μM) + PNU120596 (1 μM)-evoked current in TARO cells, 2.5 μM soluble protein applied for 3 min [1]: 100%
